From patent US20170240628A1 (CELLMID, published 2017)

T1: recombinant murine midkine (muMK) (murine, UniProt P12025 23-140)
T1 construct: also called murine MK; Murine MK
T1 sequence (looked up): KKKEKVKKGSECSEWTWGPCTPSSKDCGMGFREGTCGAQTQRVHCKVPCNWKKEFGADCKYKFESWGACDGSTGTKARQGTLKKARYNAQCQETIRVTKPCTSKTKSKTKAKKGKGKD

T2: recombinant human midkine (huMK) (human, UniProt P21741 21-143)
T2 construct: also called human MK; Human MK
T2 sequence (looked up): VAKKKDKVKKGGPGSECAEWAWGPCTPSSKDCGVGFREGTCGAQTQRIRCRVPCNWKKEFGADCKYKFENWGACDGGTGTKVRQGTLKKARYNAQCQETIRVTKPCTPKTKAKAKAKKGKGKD

B1: IP14-H3L6 (antibody, V domains shown)
VH: QVQLVQSGAEVKKPGASVKVSCKASGQSFSSYWMNWVRQAPGQGLEWMGMIHPSDSETILNQKFKDKVTMTRDTSTSTVYMELSSLRSEDTAVYYCARWSAKRGDFWGQGTLVTVSS
VL: EIVLTQSPSTLSASVGDRVNITCRASESISNNLHWYQQKPHKAPKLLIYYASQSISGVPSRFSGSGSGTEFNLTISSVQPDDFATYYCQQSNSWPLTFGQGTKVEIKR
notes: also called Hv3 Lv6
B2: murine IP14 precursor antibody (antibody, V domains shown)
VH: QVQLQQPGAELVRPGHSVKLSCKASGQSFSSYWMNWVRQRPGQGLEWIGMIHPSDSETILNQKFKDKATLTVDISSNTAYMQLSSPTSEDSAVYFCSSWSAKRGDFWGQGTTLTVSS
VL: DIVLTQSPATLSVTPGDSVNLSCRASESISNNLHWYQQKSHESPRLLIKYASQSISGIPSRFSGSGSGTDFNLSVNSVETEDFGMYFCQQSNSWPLTFGAGTKLELKR
notes: Murine monoclonal antibody; also called mIP14; mAb IP14
B3: mouse-human chimeric IP14 antibody (antibody, V domains shown)
VH: QVQLQQPGAELVRPGHSVKLSCKASGQSFSSYWMNWVRQRPGQGLEWIGMIHPSDSETILNQKFKDKATLTVDISSNTAYMQLSSPTSEDSAVYFCSSWSAKRGDFWGQGTTLTVSS
VL: DIVLTQSPATLSVTPGDSVNLSCRASESISNNLHWYQQKSHESPRLLIKYASQSISGIPSRFSGSGSGTDFNLSVNSVETEDFGMYFCQQSNSWPLTFGAGTKLELKR
notes: also called chimeric antibody; Hv0 Lv0
B4: IP14-H6L8 (antibody, V domains shown)
VH: QVQLVQSGGGLVKPGHSLRLSCAASGQSFSSYWMNWVRQAPGKGLEWIGMIHPSDSETILNQKFKDKATLSVDIAKNSAYLQMNSLRAEDTAVYYCSSWSAKRGDFWGQGTLVTVSS
VL: DIVLTQSPATLSLSPGERATLSCRASESISNNLHWYQQKPHQAPRLLIYYASQSISGVPARFSGSGSGTDFTLTISSVEPEDFAVYYCQQSNSWPLTFGQGTKVEIKR
notes: also called hIP14-H6L8; Hv6 Lv8
B5: IP14-H6L7 (antibody, V domains shown)
VH: QVQLVQSGGGLVKPGHSLRLSCAASGQSFSSYWMNWVRQAPGKGLEWIGMIHPSDSETILNQKFKDKATLSVDIAKNSAYLQMNSLRAEDTAVYYCSSWSAKRGDFWGQGTLVTVSS
VL: DIVLTQSPATLSLSPGERANLSCRASESISNNLHWYQQKPHQAPRLLIYYASQSISGVPARFSGSGSGTDFNLTISSVEPEDFAVYYCQQSNSWPLTFGQGTKVEIKR
notes: also called Hv6 Lv7
B6: IP14-H3L3 (antibody, V domains shown)
VH: QVQLVQSGAEVKKPGASVKVSCKASGQSFSSYWMNWVRQAPGQGLEWMGMIHPSDSETILNQKFKDKVTMTRDTSTSTVYMELSSLRSEDTAVYYCARWSAKRGDFWGQGTLVTVSS
VL: DIVLTQSPATLSLSPGERATLSCRASESISNNLHWYQQKPGQAPRLLIYYASQSISGIPARFSGSGPGTDFTLTISSLEPEDFAVYYCQQSNSWPLTFGGGTKLEIKR
notes: also called Hv3 Lv3
B7: IP14-H5L8 (antibody, V domains shown)
VH: QVQLVQSGGGLVQPGGSLRLSCAASGQSFSSYWMNWVRQAPGQGLEWIGMIHPSDSETILNQKFKDKATLTVDISKNTAYLQMNSLRAEDTAVYYCSSWSAKRGDFWGQGTLVTVSS
VL: DIVLTQSPATLSLSPGERATLSCRASESISNNLHWYQQKPHQAPRLLIYYASQSISGVPARFSGSGSGTDFTLTISSVEPEDFAVYYCQQSNSWPLTFGQGTKVEIKR
notes: also called hIP14-H5L8; Hv5 Lv8
B8: IP14-H6L3 (antibody, V domains shown)
VH: QVQLVQSGGGLVKPGHSLRLSCAASGQSFSSYWMNWVRQAPGKGLEWIGMIHPSDSETILNQKFKDKATLSVDIAKNSAYLQMNSLRAEDTAVYYCSSWSAKRGDFWGQGTLVTVSS
VL: DIVLTQSPATLSLSPGERATLSCRASESISNNLHWYQQKPGQAPRLLIYYASQSISGIPARFSGSGPGTDFTLTISSLEPEDFAVYYCQQSNSWPLTFGGGTKLEIKR
notes: also called hIP14-H6L3; Hv6 Lv3

What was measured:
[1] = target: T1, recombinant murine midkine (muMK); assay: ELISA on plate-coated muMK, antibody titrated up to 3 µg/ml, Abs 450nm on the sheet's axis [continued), panel IP14 Hv3 Murine Midkine]
Procedure: The binding specificity and affinity of the humanised anti-MK antibodies to recombinant human MK (huMK) and murine MK (muMK) was assessed by ELISA. ELISA plates (Nunc Immuno MaxiSorp 96 well flat-bottom were coated with 100 uL of 2 ug/mL of either huMK or muMK in 2% BSA/PBS (overnight at room temperature). After washing, blocking (1 h at 37° C.), and washing again, the humanised anti-MK and chimeric antibodies described in Example 1 were analysed for binding to huMK or muMK at concentrations ranging between 3 μg/ml and 0.00004 μg/ml in 2% BSA/PBS (1 h at 37° C.). After washing, the binding of antibody was detected with goat anti-mouse IgG (Fab specific)-HRP conjugate (Sigma, Cat. No. A9917) and SigmaFast OPD substrate (Sigma, Cat. No. P9187). […] Binding affinity data for the humanised anti-MK antibodies to huMK and muMK are presented in Table 6 and Table 7 respectively, and in FIG. 3.

[2] = target: T2, recombinant human midkine (huMK); assay: ELISA, plate coated with huMK
Procedure: (§1) The binding specificity and affinity of the humanised anti-MK antibodies to recombinant human MK (huMK) and murine MK (muMK) was assessed by ELISA. ELISA plates (Nunc Immuno MaxiSorp 96 well flat-bottom were coated with 100 uL of 2 ug/mL of either huMK or muMK in 2% BSA/PBS (overnight at room temperature). After washing, blocking (1 h at 37° C.), and washing again, the humanised anti-MK and chimeric antibodies described in Example 1 were analysed for binding to huMK or muMK at concentrations ranging between 3 μg/ml and 0.00004 μg/ml in 2% BSA/PBS (1 h at 37° C.). After washing, the binding of antibody was detected with goat anti-mouse IgG (Fab specific)-HRP conjugate (Sigma, Cat. No. A9917) and SigmaFast OPD substrate (Sigma, Cat. No. P9187). The reaction was stopped with 3 M HCl, absorbance read at 490 nm on a Dynex Technologies MRX TC II plate reader and the binding curves plotted. Binding affinity data for the humanised anti-MK antibodies to huMK and muMK are presented in Table 6 and Table 7 respectively, and in FIG. 3.

[3] = target: T2, recombinant human midkine (huMK); assay: cell-based or functional assay
[4] = target: T2, recombinant human midkine (huMK); assay: ELISA by the methods of Example 2 (printed as KD)
Procedure: as §1
(§2) KD values for hIP14-H5L8, hIP14-H6L3 and hIP14-H6L8 was then compared with the KD values obtained for the corresponding murine IP14 precursor antibody and the chimeric antibody using the methods described in Example 2. As is apparent from Table 7, the humanised mIP14 antibodies designated hIP14-H5L8, hIP14-H6L3, and hIP14-H6L8 were each shown to have better binding affinity than the murine IP14 precursor antibody and the chimeric antibody for huMK and muMK. Based on this finding, these candidate antibodies were produced to 100 mg scale to enable further testing in functional assays to determine biological function.

[5] = target: T1, recombinant murine midkine (muMK); assay: ELISA by the methods of Example 2 (printed as KD)
Procedure: as §1, §2

[6] = target: T1, recombinant murine midkine (muMK); assay: ELISA, plate coated with muMK
Procedure: as §1

| Binder | binding result [1] | EC50 [2] [nM] | % Inhibition of UMR106 cell migration, Assay 4 [3] [%] | % Inhibition of UMR106 cell migration, Assay 5 [3] [%] | % Inhibition of UMR106 cell migration, Assay 6 [3] [%] | Mean % Inhibition of UMR106 cell migration [3] [%] | Mean Cells/Field, Assay 4 (UMR106 migration, antibody 100 ug/mL, MK-17 20 µg/mL) [3] [cells/field] | Mean Cells/Field, Assay 5 (UMR106 migration, antibody 100 ug/mL, MK-17 20 µg/mL) [3] [cells/field] | Mean Cells/Field, Assay 6 (UMR106 migration, antibody 100 ug/mL, MK-17 20 µg/mL) [3] [cells/field] | Kd [4] [nM] | Kd [5] [nM] | EC50 [6] [nM] |
| --- | --- | --- | --- | --- | --- | --- | --- | --- | --- | --- | --- | --- |
| B1 | binds | 5.7 | – | – | – | – | – | – | – | – | – | – |
| B2 | – | – | 6 | 10 | 38 | 18 | 45 | 38 | 26 | 0.144 | 0.166 | – |
| B3 | – | 0.104 | – | – | – | – | – | – | – | 0.104 | 0.13 | 0.13 |
| B4 | – | 0.042 | 44 | 24 | 48 | 38.7 | 27 | 32 | 22 | 0.042 | 0.091 | 0.091 |
| B5 | – | 0.068 | – | – | – | – | – | – | – | – | – | 0.051 |
| B6 | binds | 5.79 | – | – | – | – | – | – | – | – | – | – |
| B7 | – | 0.06 | 60 | 31 | 31 | 40.7 | 19 | 29 | 29 | 0.06 | 0.05 | 0.05 |
| B8 | – | 0.07 | 48 | 40 | 45 | 44.3 | 25 | 25 | 23 | 0.07 | 0.048 | 0.048 |
